Laboratory results published in article PMC10248720.

Target: T1, WOX11 (rice, UniProt Q0D3I7 1-262)
T1 sequence: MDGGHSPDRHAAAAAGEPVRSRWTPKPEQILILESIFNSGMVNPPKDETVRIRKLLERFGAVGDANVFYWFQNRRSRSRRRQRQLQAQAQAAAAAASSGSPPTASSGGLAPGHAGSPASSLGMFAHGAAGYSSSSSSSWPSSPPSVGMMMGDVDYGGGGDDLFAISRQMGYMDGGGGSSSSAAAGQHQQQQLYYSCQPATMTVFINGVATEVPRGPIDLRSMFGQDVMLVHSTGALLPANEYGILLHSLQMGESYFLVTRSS
Experiment: EMSA

B1: PRX111-P2 (dsDNA)
DNA 1: TTCACTTAGCTTAATGCTGCTGGTGGC
DNA 2: GCCACCAGCAGCATTAAGCTAAGTGAA
- binding result: binds
